From ChEMBL document CHEMBL1150982, “Formation of the Michaelis complex without involvement of the prosthetic group dehydroalanine of histidine ammonialyase” (Bioorg Med Chem Lett, 1997)

Experiments:
Details in all cases: Pseudomonas putida
[1] = compound: NC(Cc1[nH]cnc1[N+](=O)[O-])C(=O)O; assay: The kinetic constant with the compound as substrate of recombinant wild-type Escherichia coli BL21 was determined using L-hisdine as competitive inhibitor
[2] = substrate: N[C@@H](Cc1c[nH]cn1)C(=O)O; assay: (§1) The kinetic constant with the compound as substrate of S143A mutant enzyme was determined
[3] = substrate: NC(Cc1[nH]cnc1[N+](=O)[O-])C(=O)O; assay: as §1
[4] = compound: NC(Cc1[nH]cnc1[N+](=O)[O-])C(=O)O; assay: The kinetic constant with the compound as substrate of wild-type Pseudomonas ATCC 11299b was determined using L-hisdine as competitive inhibitor
[5] = substrate: N[C@@H](Cc1c[nH]cn1)C(=O)O; assay: (§2) The kinetic constant with the compound as substrate of S143G mutant enzyme was determined
[6] = substrate: NC(Cc1[nH]cnc1[N+](=O)[O-])C(=O)O; assay: as §2
[7] = substrate: N[C@@H](Cc1c[nH]cn1)C(=O)O; assay: (§3) The kinetic constant with the compound as substrate of S143T mutant enzyme was determined
[8] = substrate: NC(Cc1[nH]cnc1[N+](=O)[O-])C(=O)O; assay: as §3
[9] = substrate: N[C@@H](Cc1c[nH]cn1)C(=O)O; assay: (§4) The kinetic constant with the compound as substrate of recombinant wild-type HAL enzyme was determined
[10] = substrate: NC(Cc1[nH]cnc1[N+](=O)[O-])C(=O)O; assay: as §4
[11] = compound: NC(Cc1[nH]cnc1[N+](=O)[O-])C(=O)O; assay: The kinetic constant with the compound as substrate of HAL mutant S143G was determined using L-hisdine as competitive inhibitor

B1: Histidine ammonia-lyase (Homo sapiens), P42357 (protein)
chain: MPRYTVHVRGEWLAVPCQDAQLTVGWLGREAVRRYIKNKPDNGGFTSVDDAHFLVRRCKGLGLLDNEDRLEVALENNEFVEVVIEGDAMSPDFIPSQPEGVYLYSKYREPEKYIELDGDRLTTEDLVNLGKGRYKIKLTPTAEKRVQKSREVIDSIIKEKTVVYGITTGFGKFARTVIPINKLQELQVNLVRSHSSGVGKPLSPERCRMLLALRINVLAKGYSGISLETLKQVIEMFNASCLPYVPEKGTVGASGDLAPLSHLALGLVGEGKMWSPKSGWADAKYVLEAHGLKPVILKPKEGLALINGTQMITSLGCEAVERASAIARQADIVAALTLEVLKGTTKAFDTDIHALRPHRGQIEVAFRFRSLLDSDHHPSEIAESHRFCDRVQDAYTLRCCPQVHGVVNDTIAFVKNIITTELNSATDNPMVFANRGETVSGGNFHGEYPAKALDYLAIGIHELAAISERRIERLCNPSLSELPAFLVAEGGLNSGFMIAHCTAAALVSENKALCHPSSVDSLSTSAATEDHVSMGGWAARKALRVIEHVEQVLAIELLAACQGIEFLRPLKTTTPLEKVYDLVRSVVRPWIKDRFMAPDIEAAHRLLLEQKVWEVAAPYIEKYRMEHIPESRPLSPTAFSLQFLHKKSTKIPESEDL
[1]
  Km: 5.2 mM
[2]
  Km: 7.5 mM
  Vmax: 0.0214 IU mg-1
[3]
  Km: 9.8 mM
  Vmax: 0.87 IU mg-1
[4]
  Km: 4 mM
[5]
  Km: 5.3 mM
  Vmax: 0.0047 IU mg-1
[6]
  Km: 4 mM
  Vmax: 0.52 IU mg-1
[7]
  Km: 3.1 mM
  Vmax: 0.00047 IU mg-1
[8]
  Km: 12.8 mM
  Vmax: 0.87 IU mg-1
[9]
  Km: 5.2 mM
  Vmax: 25 IU mg-1
[10]
  Km: 7.7 mM
  Vmax: 0.85 IU mg-1
[11]
  Km: 5.3 mM
